± gives the uncertainty stated by the source.
B1: Nuclear receptor subfamily 4 group A member 2, residues 260 to 336; numbered along this chain, P43354 (parent)
chain: EGLCAVCGDNAACQHYGVRTCEGCKGFFKRTVQKNAKYVCLANKNCPVDKRRRNRCQYCRFQKCLAVGMVKEVVRTD

Variants of: B1
Experiment: abundance fitness (aPCA) (normalised: wild type 0, dead -1); higher = more abundant; growth selection in yeast, the domain comes from the species named
Conditions: Homo sapiens

Variant	abundance fitness
EGLCAVCGDNAACQHYGVRTCEGCKGFFSRTVQKNAKYVCLANKNCPVDKRRRNRCQYCRFQKCLAVGMVKEVVRTD	0.121 ± 0.11
EGLCAVCGDNAACQHYGVRTCEGCKGFFCRTVQKNAKYVCLANKNCPVDKRRRNRCQYCRFQKCLAVGMVKEVVRTD	-0.239 ± 0.27
EGLCAVCGDNAACQHYGVRTCEGCKGFFPRTVQKNAKYVCLANKNCPVDKRRRNRCQYCRFQKCLAVGMVKEVVRTD	-0.126 ± 0.2
EGLCAVCGDNAACQHYGVRTCEGCKGFFKRTVQKNGKYVCLANKNCPVDKRRRNRCQYCRFQKCLAVGMVKEVVRTD	-0.093 ± 0.071
EGLCAVCGDNAACQHYGVRTCEGCKGFFKRTVQKNDKYVCLANKNCPVDKRRRNRCQYCRFQKCLAVGMVKEVVRTD	-0.019 ± 0.1
EGLCAVCGDNAACQHYGVRTCEGCKGFFKRTVQKNCKYVCLANKNCPVDKRRRNRCQYCRFQKCLAVGMVKEVVRTD	-0.017 ± 0.14
EGLCAVCGDNAACQHYGVRTCEGCKGFFKRTVQKNEKYVCLANKNCPVDKRRRNRCQYCRFQKCLAVGMVKEVVRTD	-0.001 ± 0.11
EGLCAVCGDNAACQHYGVRTCEGCKGFFKRTVQKNFKYVCLANKNCPVDKRRRNRCQYCRFQKCLAVGMVKEVVRTD	0.458 ± 0.19
EGLCAVCGDNAACQHYGVRTCEGCKGFFKRRVQKNAKYVCLANKNCPVDKRRRNRCQYCRFQKCLAVGMVKEVVRTD	-0.126 ± 0.22
EGLCAVCGDNAACQHYGVRTCEGCKGFFKRQVQKNAKYVCLANKNCPVDKRRRNRCQYCRFQKCLAVGMVKEVVRTD	-0.167 ± 0.45
EGLCAVCGDNAACQHYGVRTCEGCKGFFKRVVQKNAKYVCLANKNCPVDKRRRNRCQYCRFQKCLAVGMVKEVVRTD	-0.061 ± 0.33
EGLCAVCGDNAACQHYGVRTCEGCKGFFKRTCQKNAKYVCLANKNCPVDKRRRNRCQYCRFQKCLAVGMVKEVVRTD	-0.071 ± 0.36
EGLCAVCGDNAACQHYGVRTCEGCKGFFKRTAQKNAKYVCLANKNCPVDKRRRNRCQYCRFQKCLAVGMVKEVVRTD	0.211 ± 0.23
EGLCAVCGDNAACQHYGVRTCEGCKGFFKRTKQKNAKYVCLANKNCPVDKRRRNRCQYCRFQKCLAVGMVKEVVRTD	-0.532 ± 0.26
EGLCAVCGDNAACQHYGVRTCEGCKGFFKRTLQKNAKYVCLANKNCPVDKRRRNRCQYCRFQKCLAVGMVKEVVRTD	-0.511 ± 0.41
EGLCAVCGDNAACQHYGVRTCEGCKGFFKRTTQKNAKYVCLANKNCPVDKRRRNRCQYCRFQKCLAVGMVKEVVRTD	0.036 ± 0.34
EGLCAVCGDNAACQHYGVRTCEGCKGFFKRTHQKNAKYVCLANKNCPVDKRRRNRCQYCRFQKCLAVGMVKEVVRTD	-0.224 ± 0.27
EGLCAVCGDNAACQHYGVRTCEGCKGFFKRTEQKNAKYVCLANKNCPVDKRRRNRCQYCRFQKCLAVGMVKEVVRTD	0.101 ± 0.45

Variant	abundance fitness
EGLCAVCGDNAACQHYGVRTCEGCKGFFKRTRQKNAKYVCLANKNCPVDKRRRNRCQYCRFQKCLAVGMVKEVVRTD	0.256 ± 0.2
EGLCAVCGDNAACQHYGVRTCEGCKGFFKRTVKKNAKYVCLANKNCPVDKRRRNRCQYCRFQKCLAVGMVKEVVRTD	-0.035 ± 0.23
EGLCAVCGDNAACQHYGVRTCEGCKGFFKRTVRKNAKYVCLANKNCPVDKRRRNRCQYCRFQKCLAVGMVKEVVRTD	-0.252 ± 0.37
EGLCAVCGDNAACQHYGVRTCEGCKGFFKRTVLKNAKYVCLANKNCPVDKRRRNRCQYCRFQKCLAVGMVKEVVRTD	-0.049 ± 0.25
EGLCAVCGDNAACQHYGVRTCEGCKGFFKETVQKNAKYVCLANKNCPVDKRRRNRCQYCRFQKCLAVGMVKEVVRTD	-0.105 ± 0.14
EGLCAVCGDNAACQHYGVRTCEGCKGFFKQTVQKNAKYVCLANKNCPVDKRRRNRCQYCRFQKCLAVGMVKEVVRTD	-0.005 ± 0.13
EGLCAVCGDNAACQHYGVRTCEGCKGFFKCTVQKNAKYVCLANKNCPVDKRRRNRCQYCRFQKCLAVGMVKEVVRTD	-0.086 ± 0.19
EGLCAVCGDNAACQHYGVRTCEGCKGFFKNTVQKNAKYVCLANKNCPVDKRRRNRCQYCRFQKCLAVGMVKEVVRTD	-0.126 ± 0.17
EGLCAVCGDNAACQHYGVRTCEGCKGFFKKTVQKNAKYVCLANKNCPVDKRRRNRCQYCRFQKCLAVGMVKEVVRTD	-0.016 ± 0.38
EGLCAVCGDNAACQHYGVRTCEGCKGFFKMTVQKNAKYVCLANKNCPVDKRRRNRCQYCRFQKCLAVGMVKEVVRTD	-0.148 ± 0.2
EGLCAVCGDNAACQHYGVRTCEGCKGFFKTTVQKNAKYVCLANKNCPVDKRRRNRCQYCRFQKCLAVGMVKEVVRTD	-0.028 ± 0.13
EGLCAVCGDNAACQHYGVRTCEGCKGFFKVTVQKNAKYVCLANKNCPVDKRRRNRCQYCRFQKCLAVGMVKEVVRTD	-0.216 ± 0.086
EGLCAVCGDNAACQHYGVRTCEGCKGFFKSTVQKNAKYVCLANKNCPVDKRRRNRCQYCRFQKCLAVGMVKEVVRTD	-0.086 ± 0.092
EGLCAVCGDNAACQHYGVRTCEGCKGFFKWTVQKNAKYVCLANKNCPVDKRRRNRCQYCRFQKCLAVGMVKEVVRTD	-0.16 ± 0.096
EGLCAVCGDNAACQHYGVRTCEGCKGFFKITVQKNAKYVCLANKNCPVDKRRRNRCQYCRFQKCLAVGMVKEVVRTD	-0.163 ± 0.23
EGLCAVCGDNAACQHYGVRTCEGCKGFFKFTVQKNAKYVCLANKNCPVDKRRRNRCQYCRFQKCLAVGMVKEVVRTD	-0.032 ± 0.36
EGLCAVCGDNAACQHYGVRTCEGCKGFFKDTVQKNAKYVCLANKNCPVDKRRRNRCQYCRFQKCLAVGMVKEVVRTD	-0.032 ± 0.28
EGLCAVCGDNAACQHYGVRTCEGCKGFFKGTVQKNAKYVCLANKNCPVDKRRRNRCQYCRFQKCLAVGMVKEVVRTD	-0.235 ± 0.072

— the Human Domainome abundance scans (Beltran et al. 2025)
